Laboratory results taken from article PMC5523967, “Dimerized Domain V of Beta2-Glycoprotein I Is Sufficient to Upregulate Procoagulant Activity in PMA-Treated U937 Monocytes and Require Intact Residues in Two Phospholipid-Binding Loops” (Antibodies, 2017).

Tests used:
Assay in all cases: ITC; A1 (500 μM) in the injection syringe titrated in 2 μL increments into HA-DV or HA-DV variant (50 μM) in the sample cell; 298 K; 25 mM Hepes pH 7.1, 50 mM NaCl, 2 mM CaCl2; one site binding model
Conditions in all cases: both partners purified
[1] = target: T1, HA-tagged domain V of human β2GPI (HA-DV), wild type (human, UniProt P02749 263-345)
T1 construct: beta2-glycoprotein I (β2GPI), human, domain V, residues 244-326; also called wild type HA-DV; β2GPI-DV; source: expressed from a pET15b vector and purified as previously described [34]; not shown: HA, N-terminal, kept
T1 sequence (looked up): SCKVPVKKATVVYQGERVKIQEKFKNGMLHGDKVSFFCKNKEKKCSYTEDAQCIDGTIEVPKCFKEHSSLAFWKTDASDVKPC

[2] = target: T2, HA-DV Lys308/Arg (human, UniProt P02749 263-345, Lys308/Arg)
T2 construct: beta2-glycoprotein I (β2GPI), human, domain V, residues 244-326, Lys308 to Arg; Point mutant of m2; also called Lys308/Arg variant of HA-DV; source: expressed from a pET15b vector and purified as previously described [34]; not shown: HA, N-terminal, kept
T2 sequence (looked up): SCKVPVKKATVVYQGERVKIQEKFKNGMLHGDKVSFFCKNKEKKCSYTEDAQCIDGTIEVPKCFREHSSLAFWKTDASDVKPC

[3] = target: T3, HA-DV Lys282/Arg (human, UniProt P02749 263-345, Lys282/Arg)
T3 construct: beta2-glycoprotein I (β2GPI), human, domain V, residues 244-326, Lys282 to Arg; Point mutant of m2; also called Lys282/Arg variant of HA-DV; source: expressed from a pET15b vector and purified as previously described [34]; not shown: HA, N-terminal, kept
T3 sequence (looked up): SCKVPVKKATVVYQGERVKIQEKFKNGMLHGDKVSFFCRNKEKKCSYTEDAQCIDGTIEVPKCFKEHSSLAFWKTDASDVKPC

[4] = target: T4, HA-DV Leu313/Asn (human, UniProt P02749 263-345, Leu313/Asn)
T4 construct: beta2-glycoprotein I (β2GPI), human, domain V, residues 244-326, Leu313 to Asn; Point mutant of m2; also called Leu313/Asn variant of HA-DV; source: expressed from a pET15b vector and purified as previously described [34]; not shown: HA, N-terminal, kept
T4 sequence (looked up): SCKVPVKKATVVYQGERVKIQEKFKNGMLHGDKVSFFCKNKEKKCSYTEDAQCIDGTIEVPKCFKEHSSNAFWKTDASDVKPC

[5] = target: T5, HA-DV Leu313/Asp_Phe315/Ser (human, UniProt P02749 263-345, Leu313/Asp | Phe315/Ser)
T5 construct: beta2-glycoprotein I (β2GPI), human, domain V, residues 244-326, Leu313 to Asp and Phe315 to Ser; Double mutant of m2; source: expressed from a pET15b vector and purified as previously described [34]; not shown: HA, N-terminal, kept
T5 sequence (looked up): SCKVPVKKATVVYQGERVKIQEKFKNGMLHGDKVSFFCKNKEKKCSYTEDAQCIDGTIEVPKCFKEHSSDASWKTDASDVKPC

Measured: binding result

B1: A1, fragment of mouse ApoER2 (residues 12-47) in which Asp is substituted for Asn36 (domain or fragment)
chain: not shown
notes: source: Escherichia coli, purified as previously described [64]
binds: all assays above
